Target: T1, His-Edc3-mCherry (S. cerevisiae, UniProt P39998 1-551)
T1 construct: Edc3, P-body protein of S. cerevisiae with Lsm, FDF and YjeF-N domains; full length; also called full-length Edc3; purified Edc3; source: E. coli BL21, purified (Ni-NTA agarose, batch; RNase A added during purification); not shown: His, N-terminal, kept; mCherry, C-terminal, kept
T1 sequence (looked up): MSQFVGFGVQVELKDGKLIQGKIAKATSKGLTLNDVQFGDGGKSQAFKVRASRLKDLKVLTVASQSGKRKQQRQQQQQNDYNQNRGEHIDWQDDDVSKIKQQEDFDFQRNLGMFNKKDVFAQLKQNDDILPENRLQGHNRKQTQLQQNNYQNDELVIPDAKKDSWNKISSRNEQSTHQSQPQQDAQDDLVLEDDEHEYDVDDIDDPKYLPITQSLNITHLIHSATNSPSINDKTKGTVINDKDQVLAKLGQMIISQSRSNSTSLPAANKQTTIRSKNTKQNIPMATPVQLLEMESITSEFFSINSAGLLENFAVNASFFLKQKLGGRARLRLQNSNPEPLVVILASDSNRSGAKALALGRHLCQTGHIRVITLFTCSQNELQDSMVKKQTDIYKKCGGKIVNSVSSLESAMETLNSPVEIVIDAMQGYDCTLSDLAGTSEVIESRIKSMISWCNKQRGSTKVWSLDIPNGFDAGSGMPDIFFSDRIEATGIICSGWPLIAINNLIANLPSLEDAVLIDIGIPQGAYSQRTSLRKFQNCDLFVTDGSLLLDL
Assay: pull-down; RFP magnetic agarose beads (Chromotek) capture Edc3-mCherry; 100 pmol of each purified protein; 4 °C, 2 h; 50 mM HEPES pH 7, 100 mM NaCl, 1 mM DTT, 2 mM MnCl2, 2 mM MgCl2, 1% Triton-X100, 10% glycerol, 0.25 mg/mL RNase A; western blot
Conditions: both partners purified

binding result: binds
B1: His-Sbp1-FLAG (natural protein, S. cerevisiae, UniProt P10080 1-294, looked up)
chain: MSAEIEEATNAVNNLSINDSEQQPRAPTHKTVIDPEDTIFIGNVAHECTEDDLKQLFVEEFGDEVSVEIPIKEHTDGHIPASKHALVKFPTKIDFDNIKENYDTKVVKDREIHIKRARTPGQMQRGGFRGRGGFRGRGGFRGGFRGGYRGGFRGRGNFRGRGGARGGFNGQKREKIPLDQMERSKDTLYINNVPFKATKEEVAEFFGTDADSISLPMRKMRDQHTGRIFTSDSANRGMAFVTFSGENVDIEAKAEEFKGKVFGDRELTVDVAVIRPENDEEEIEQETGSEEKQE
notes: Sbp1, RGG-motif containing translation repressor of S. cerevisiae; wild type; also called wild-type Sbp1; purified Sbp1; source: E. coli BL21, purified (Ni-NTA agarose, batch; RNase A added during purification); not shown: His, N-terminal, kept; FLAG, C-terminal, kept
